Laboratory results from US20150344570A1 (published 2015).

T1: FcgRIIaR (human, UniProt P12318 34-217)
T1 construct: extracellular domain; also called FcγRIIa R; FcgRIIa type R; not shown: His tag attached to the C terminus
T1 sequence (looked up): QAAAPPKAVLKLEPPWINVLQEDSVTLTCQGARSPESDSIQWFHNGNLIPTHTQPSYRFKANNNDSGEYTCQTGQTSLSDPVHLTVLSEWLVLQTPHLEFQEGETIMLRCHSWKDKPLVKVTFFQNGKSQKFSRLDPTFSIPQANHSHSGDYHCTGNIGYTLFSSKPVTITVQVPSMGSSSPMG

T2: FcgRIIb (human, UniProt P31994 43-217)
T2 construct: extracellular domain; also called FcγRIIb; 2b; not shown: His tag attached to the C terminus
T2 sequence (looked up): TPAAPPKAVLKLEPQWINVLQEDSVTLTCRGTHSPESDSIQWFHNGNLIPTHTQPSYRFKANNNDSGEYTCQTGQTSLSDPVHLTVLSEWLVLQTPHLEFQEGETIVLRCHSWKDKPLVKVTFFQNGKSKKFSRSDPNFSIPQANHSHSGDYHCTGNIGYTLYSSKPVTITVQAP

T3: FcgRIIaH (human, UniProt P12318 34-217)
T3 construct: extracellular domain; also called FcγRIIa H; FcgRIIa type H; not shown: His tag attached to the C terminus
T3 sequence (looked up): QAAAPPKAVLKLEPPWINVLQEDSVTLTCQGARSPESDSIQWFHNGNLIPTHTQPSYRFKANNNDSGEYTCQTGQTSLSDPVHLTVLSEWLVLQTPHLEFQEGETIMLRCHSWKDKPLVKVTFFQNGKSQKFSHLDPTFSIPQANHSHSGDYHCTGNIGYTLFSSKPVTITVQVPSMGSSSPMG

T4: FcγRIIb extracellular domain with C-terminal His tag (human, UniProt P31994 43-217)
T4 construct: extracellular domain; also called FcgRIIb; 2b
T4 sequence (looked up): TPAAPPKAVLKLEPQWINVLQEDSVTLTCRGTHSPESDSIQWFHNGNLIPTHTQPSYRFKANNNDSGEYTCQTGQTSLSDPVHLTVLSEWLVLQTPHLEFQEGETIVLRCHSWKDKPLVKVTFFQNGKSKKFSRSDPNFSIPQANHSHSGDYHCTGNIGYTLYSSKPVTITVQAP


How the values were obtained:
FcgRIIIaV = target: T5, FcgRIIIaV (human, UniProt P08637 17-208); test: SPR (Biacore); KD of H240-Kn033/H240-Hl033/L73-k0 divided by KD of this variant
T5 construct: extracellular domain; also called FcγRIIIa V; 3aV; not shown: His tag attached to the C terminus
T5 sequence (P08637 17-208 F176V limits assumed): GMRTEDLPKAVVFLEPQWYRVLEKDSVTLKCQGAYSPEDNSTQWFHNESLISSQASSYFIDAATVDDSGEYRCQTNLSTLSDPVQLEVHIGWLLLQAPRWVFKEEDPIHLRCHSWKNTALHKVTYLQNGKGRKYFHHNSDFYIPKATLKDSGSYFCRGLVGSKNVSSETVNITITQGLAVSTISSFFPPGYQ
Method: (§1) H240-Kn204/H240-Hl211/L73-k0 and H240-Kn205/H240-Hl212/L73-k0 were prepared according to the method of Reference Example 1, by combining H240-Kn204 as one of the H chains and L73-k0 as the L chains with H240-Hl211 as the other H chain, and by combining H240-Kn205 as one of the H chains and L73-k0 as the L chains with H240-Hl212 as the other H chain, and then expressing them. The binding of the prepared variants to FcgRIa, FcgRIIaR, FcgRIIaH, FcgRIIb, FcgRIIIaF, and FcgRIIIaV was measured according to the method of Reference Example 8.
(§2) “fold 2aR”, “fold 2aH”, “fold 2b”, “fold 3aF”, and “fold 3aV” show the relative binding activity of each variant to FcgRIIaR, FcgRIIaH, FcgRIIb, FcgRIIIaF, and FcgRIIIaV, respectively, when the binding activity of H240-Kn033/H240-Hl033/L73-k0, a variant produced by introducing only alterations that promote formation of a heterodimerized antibody into a native IgG1, is defined as 1. Specifically, they are values obtained by dividing the KD value of H240-Kn033/H240-Hl033/L73-k0 for each FcgR by the KD value of an individual variant for each FcgR.
(§3) Analysis of interaction between objective antibody and the FcγR was carried out using Biacore T100 (GE Healthcare), Biacore T200, Biacore A100, and Biacore 4000. HBS-EP+ (GE Healthcare) was used as the running buffer, and the measurement temperature was set to 25° C. Chips produced by immobilizing the antigen peptide by the amine coupling method to a Series S sensor Chip CM5 (GE Healthcare), chips produced by allowing preliminarily biotinylated antigen peptides to interact with and immobilize onto a Series S Sensor Chip SA (certified) (GE Healthcare), chips produced by immobilizing Protein L (ACTIGEN, BioVision) to Series S Sencor Chip CM5 (GE Healthcare), or chips produced by immobilizing Protein A/G (Thermo Scientific) to Series S Sencor Chip CM5 (GE Healthcare) were used. Antibodies of interest were captured onto these chips, and allowed to interact to each FcγR diluted with running buffer.

FcgRIIIaF = target: T6, FcgRIIIaF (human, UniProt P08637 17-208); test: as above
T6 construct: extracellular domain; also called FcγRIIIa F; 3aF; not shown: His tag attached to the C terminus
T6 sequence (P08637 17-208): as the sequence (P08637 17-208 F176V limits assumed) above, with V160F counted along it
Method: as §1, §2, §3

FcgRIIaR = target: T1, FcgRIIaR; test: as above
Method: as §1, §2, §3

FcgRIIb = target: T2, FcgRIIb; test: as above
Method: as §1, §2, §3

FcgRIIaH = target: T3, FcgRIIaH; test: as above
Method: as §1, §2, §3

[1] = target: T7, FcγRIa extracellular domain with C-terminal His tag (human, UniProt P12314 16-292); test: SPR (Biacore), antibody captured via antigen peptide, FcγR as analyte; relative binding
T7 construct: extracellular domain; also called FcgRI; 1a
T7 sequence (P12314 16-292): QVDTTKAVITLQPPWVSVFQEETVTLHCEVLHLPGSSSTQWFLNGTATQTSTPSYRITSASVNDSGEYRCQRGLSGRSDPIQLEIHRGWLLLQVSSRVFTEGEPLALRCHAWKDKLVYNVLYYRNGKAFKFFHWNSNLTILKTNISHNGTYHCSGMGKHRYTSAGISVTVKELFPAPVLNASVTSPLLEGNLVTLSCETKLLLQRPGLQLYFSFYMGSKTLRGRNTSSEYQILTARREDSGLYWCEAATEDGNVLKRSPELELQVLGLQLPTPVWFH
Method: (§4) The heterodimerized antibodies He Abs in which one of the H chains was introduced with an alteration were assayed for their binding activities to each activating FcγR and inhibitory FcγR according to the method described in Example 4. […] The activating FcγRs in FIGS. 26, 27, 28, and 29 are FcγRIa, FcγRIIa (R), FcγRIIa (H), and FcγRIIIa, respectively.
(§5) Analysis of interaction between objective antibody and the FcγR was carried out using Biacore T100 (GE Healthcare). HBS-EP+ (GE Healthcare) was used as the running buffer, and the measurement temperature was set to 25° C. Chips produced by immobilizing the antigen peptide by the amine coupling method to a Series S Sencor Chip CM5 (GE Healthcare), or alternatively, chips produced by allowing preliminarily biotinylated antigen peptides to interact with and immobilize onto a Series S Sensor Chip SA (certified) (GE Healthcare) were used. Antibodies of interest were captured onto an antigen peptide-immobilized chip, and allowed to interact to each FcγR diluted with running buffer. To regenerate and repeatedly use the chip, the antibodies captured on the chip were washed off by reacting 10 mM glycine-HCl, pH 1.5.

[2] = target: T4, FcγRIIb extracellular domain with …; test: as above
Method: as §4, §5

[3] = target: T7, FcγRIa extracellular domain with …; test: SPR (Biacore); He/Con_1a divided by He/Con_2b (FcγRIa binding over FcγRIIb binding)
Method: as §4, §5

Row | Binder | fold 3aV (FcgRIIIaV) | fold 3aF (FcgRIIIaF) | fold 2aR (FcgRIIaR) | fold 2b (FcgRIIb) | fold 2aH (FcgRIIaH) | He/Con_1a [1] | He/Con_2b [2] | He_1a/2b (Ia/IIb) [3]
1 | H240-Kn032/H240-Hl032/L73-k0 (antibody, human IgG1, kappa, Anti-epiregulin IgG1, knobs-into-holes; S239D/A330L/I332E in both H chains (comparison antibody)) heavy 1: QDQLVQSGAEVKKPGASVKVSCKASGFNIKDTYIQWVRQAPGQGLEWMGRIDPLRKQTKYREKFEGRVTITADTSTNTAYMELSSLRSEDTAVYYCVRSGREFDYWGQGTLVTVSSASTKGPSVFPLAPSSKSTSGGTAALGCLVKDYFPEPVTVSWNSGALTSGVHTFPAVLQSSGLYSLSSVVTVPSSSLGTQTYICNVNHKPSNTKVDKKVEPKSCDKTHTCPPCPAPELLGGPDVFLFPPKPKDTLMISRTPEVTCVVVDVSHEDPEVKFNWYVDGVEVHNAKTKPREEQYNSTYRVVSVLTVLHQDWLNGKEYKCKVSNKALPLPEEKTISKAKGQPREPQVCTLPPSRDELTKNQVSLWCLVKGFYPSDIAVEWESNGQPENNYKTTPPVLDSDGSFFLYSKLTVDKSRWQQGNVFSCSVMHEALHNHYTQKSLSLSP heavy 2: QDQLVQSGAEVKKPGASVKVSCKASGFNIKDTYIQWVRQAPGQGLEWMGRIDPLRKQTKYREKFEGRVTITADTSTNTAYMELSSLRSEDTAVYYCVRSGREFDYWGQGTLVTVSSASTKGPSVFPLAPSSKSTSGGTAALGCLVKDYFPEPVTVSWNSGALTSGVHTFPAVLQSSGLYSLSSVVTVPSSSLGTQTYICNVNHKPSNTKVDKKVEPKSCDKTHTCPPCPAPELLGGPDVFLFPPKPKDTLMISRTPEVTCVVVDVSHEDPEVKFNWYVDGVEVHNAKTKPREEQYNSTYRVVSVLTVLHQDWLNGKEYKCKVSNKALPLPEEKTISKAKGQPREPQVYTLPPSRCELTKNQVSLSCAVKGFYPSDIAVEWESNGQPENNYKTTPPVLDSDGSFFLVSKLTVDKSRWQQGNVFSCSVMHEALHNHYTQKSLSLSP light: DIQMTQSPSSLSASVGDRVTITCRASQDIHKYIAWYQQKPGQAPRLLIQYTSTLQPGVPSRFSGSGSGTDYTFTISSLQPEDIATYYCLQYEQLRTFGGGTKVEIKRTVAAPSVFIFPPSDEQLKSGTASVVCLLNNFYPREAKVQWKVDNALQSGNSQESVTEQDSKDSTYSLSSTLTLSKADYEKHKVYACEVTHQGLSSPVTKSFNRGEC | 15.5 fold | 31.9 fold | 2.2 fold | 5.3 fold | 0.8 fold |  |  | 
2 | GpH7-A5/GpH7-B3 variant Y296_05P/GpL16-k0 (antibody, human IgG1, kappa, Heterodimerized anti-glypican-3 IgG1; alteration only in the GpH7-B3 chain, EU numbering; also called He Ab) heavy 1: not shown heavy 2: not shown light: DIVMTQSPLSLPVTPGEPASISCQASESLVHSNRNTYLHWYLQKPGQSPQLLIYKVSNRFSGVPDRFSGSGSGTDFTLKISRVEAEDVGVYYCSQNTHVPPTFGQGTKVEIERTVAAPSVFIFPPSDEQLKSGTASVVCLLNNFYPREAKVQWKVDNALQSGNSQESVTEQDSKDSTYSLSSTLTLSKADYEKHKVYACEVTHQGLSSPVTKSFNRGEC |  |  |  |  |  | 95.6 % of GpH7-A5/GpH7-B3/GpL16-k0 (=100) | 36.6 % of GpH7-A5/GpH7-B3/GpL16-k0 (=100) | 2.61 ratio
3 | GpH7-A5/GpH7-B3 variant Y296_08L/GpL16-k0 (antibody, human IgG1, kappa, Heterodimerized anti-glypican-3 IgG1; alteration only in the GpH7-B3 chain, EU numbering; also called He Ab) heavy 1: not shown heavy 2: not shown light: DIVMTQSPLSLPVTPGEPASISCQASESLVHSNRNTYLHWYLQKPGQSPQLLIYKVSNRFSGVPDRFSGSGSGTDFTLKISRVEAEDVGVYYCSQNTHVPPTFGQGTKVEIERTVAAPSVFIFPPSDEQLKSGTASVVCLLNNFYPREAKVQWKVDNALQSGNSQESVTEQDSKDSTYSLSSTLTLSKADYEKHKVYACEVTHQGLSSPVTKSFNRGEC |  |  |  |  |  | 104 % of GpH7-A5/GpH7-B3/GpL16-k0 (=100) | 82.3 % of GpH7-A5/GpH7-B3/GpL16-k0 (=100) | 1.26 ratio
4 | GpH7-A5/GpH7-B3 variant Y296_12R/GpL16-k0 (antibody, human IgG1, kappa, Heterodimerized anti-glypican-3 IgG1; alteration only in the GpH7-B3 chain, EU numbering; also called He Ab) heavy 1: not shown heavy 2: not shown light: DIVMTQSPLSLPVTPGEPASISCQASESLVHSNRNTYLHWYLQKPGQSPQLLIYKVSNRFSGVPDRFSGSGSGTDFTLKISRVEAEDVGVYYCSQNTHVPPTFGQGTKVEIERTVAAPSVFIFPPSDEQLKSGTASVVCLLNNFYPREAKVQWKVDNALQSGNSQESVTEQDSKDSTYSLSSTLTLSKADYEKHKVYACEVTHQGLSSPVTKSFNRGEC |  |  |  |  |  | 106 % of GpH7-A5/GpH7-B3/GpL16-k0 (=100) | 79.5 % of GpH7-A5/GpH7-B3/GpL16-k0 (=100) | 1.34 ratio
